Experimental data from patent US20190352387A1 (Chugai, published 2019).

T1: Recombinant mouse sclerostin (mouse, UniProt Q99P68 24-211)
T1 construct: Whole entry as named; also called mouse-SOST
T1 sequence: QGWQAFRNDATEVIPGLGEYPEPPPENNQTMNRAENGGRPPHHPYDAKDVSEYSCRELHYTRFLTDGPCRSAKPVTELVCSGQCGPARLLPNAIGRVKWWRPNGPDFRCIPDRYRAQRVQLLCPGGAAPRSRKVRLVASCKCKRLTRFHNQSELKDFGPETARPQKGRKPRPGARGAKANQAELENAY

T2: Recombinant cynomolgus monkey sclerostin (cynomolgus monkey, UniProt Q9BG78 24-213 (Chlorocebus aethiops entry))
T2 construct: Whole entry as named; expressed and purified as the human counterpart; also called cyno-SOST; cyno SOST
T2 chain: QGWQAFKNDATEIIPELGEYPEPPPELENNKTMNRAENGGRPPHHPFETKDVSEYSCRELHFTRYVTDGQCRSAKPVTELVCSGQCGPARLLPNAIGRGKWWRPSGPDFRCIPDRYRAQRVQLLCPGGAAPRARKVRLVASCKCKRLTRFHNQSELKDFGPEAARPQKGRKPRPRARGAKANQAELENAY

T3: Recombinant human sclerostin (human, UniProt Q9BQB4 24-213)
T3 construct: Whole entry as named; Secreted recombinant protein purified from FreeStyle293-F conditioned medium; also called human-SOST; Human SOST
T3 sequence: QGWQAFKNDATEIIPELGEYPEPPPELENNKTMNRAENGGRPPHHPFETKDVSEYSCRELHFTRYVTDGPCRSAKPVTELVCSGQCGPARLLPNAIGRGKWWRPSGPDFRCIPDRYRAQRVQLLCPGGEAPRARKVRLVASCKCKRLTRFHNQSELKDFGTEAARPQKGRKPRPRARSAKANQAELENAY


How the values were obtained:
[1] = molecular target: T1, Recombinant mouse sclerostin; assay: SPR (Biacore T200), 37 C, antibody captured by anti-human Fc, sclerostin as analyte, pH 5.8
Procedure: (§1) The affinity of anti-sclerostin variants binding to human, cynomolgus monkey (cyno), rat, or mouse sclerostin at pH 7.4 and pH 5.8 were determined at 37 degrees C. using Biacore T200 instrument (GE Healthcare). Anti-human Fc (GE Healthcare) was immobilized onto all flow cells of a CM4 sensor chip using amine coupling kit (GE Healthcare). All antibodies and analytes were prepared in ACES pH7.4 or pH 5.8 buffer containing 20 mM ACES, 150 mM NaCl, 1.2 mM CaCl₂, 0.05% Tween 20, 0.005% NaN₃. Each antibody was captured onto the sensor surface by anti-human Fc. […] Sensor surface was regenerated each cycle with 3M MgCl₂.

[2] = molecular target: T1, Recombinant mouse sclerostin; assay: SPR (Biacore T200), 37 C, dissociation at pH 5.8 of complex formed at pH 7.4
Procedure: as §1
(§2) The pH dependent interaction assessment was determined by a modified Biacore assay. Briefly, an additional dissociation phase at pH5.8 was integrated into the Biacore assay immediately after dissociation phase at pH7.4. This is to assess the pH-dependent dissociation between antibody and antigen from the complexes formed at pH7.4. The dissociation rate at pH5.8 buffer was determined by processing and fitting data using Scrubber 2.0 (BioLogic Software) curve fitting software.

[3] = molecular target: T1, Recombinant mouse sclerostin; assay: SPR (Biacore T200), 37 C, antibody captured by anti-human Fc, sclerostin as analyte, pH 7.4; pH 7.4
Procedure: as §1

[4] = molecular target: T2, Recombinant cynomolgus monkey sclerostin; assay: SPR (Biacore T200), 37 C, antibody captured by anti-human Fc, sclerostin as analyte, pH 5.8
Procedure: as §1

[5] = molecular target: T3, Recombinant human sclerostin; assay: SPR (Biacore T200), 37 C, antibody captured by anti-human Fc, sclerostin as analyte, pH 7.4
Procedure: as §1

[6] = molecular target: T2, Recombinant cynomolgus monkey sclerostin; assay: SPR (Biacore T200), 37 C, dissociation at pH 5.8 of complex formed at pH 7.4
Procedure: as §1, §2

[7] = molecular target: T3, Recombinant human sclerostin; assay: as above
Procedure: as §1, §2

[8] = molecular target: T1, Recombinant mouse sclerostin; assay: SPR (Biacore T200), 37 C, antibody captured by anti-human Fc, sclerostin as analyte, pH 5.8; pH 5.8
Procedure: as §1

| Kd [1] [nM] | koff [2] [s⁻¹] | Kd [3] [nM] | Kd [4] [nM] | Kd [5] [nM] | koff [6] [s⁻¹] | koff [7] [s⁻¹] | Kd [8] [nM] | Binder |
| --- | --- | --- | --- | --- | --- | --- | --- | --- |
| 0.26 | 0.00265 |  |  |  |  |  |  | mabB (antibody, V domains shown) VH: QVQLVQSGAEVKKPGASVKVSCKVSGFPIKDTFQHWVRQAPGKGLEWMGWSDPEIGDTEYASKFQGRVTMTEDTSTDTAYMELSSLRSEDTAVYYCATGDTTYKFDFWGQGTTVTVSS VL: DIQMTQSPSSLSASVGDRVTITCKASQDVHTAVAWYQQKPGKAPKLLIYWASTRWTGVPSRFSGSGSGTDFTLTISSLQPEDFATYYCQQYSDYPWTFGGGTKVEIK |
|  |  | < 0.01 | 1.4 | 0.08 | 0.00697 | 0.00631 | < 0.01 | mabA (antibody, V domains shown) VH: EVQLVQSGAEVKKPGASVKVSCKASGYTFTDYNMHWVRQAPGQGLEWMGEINPNSGGAGYNQKFKGRVTMTTDTSTSTAYMELRSLRSDDTAVYYCARLGYDDIYDDWYFDVWGQGTTVTVSS VL: DIQMTQSPSSLSASVGDRVTITCRASQDISNYLNWYQQKPGKAPKLLIYYTSRLLSGVPSRFSGSGSGTDFTLTISSLQPEDFATYYCQQGDTLPYTFGGGTKVEIK |
